T1: Human EphA1 Fc fusion (Human, UniProt P21709 26-547)
T1 construct: Bought Fc fusion; also called Sino Biologics 15789-H02H; not shown: Fc of the bought fusion
T1 sequence (looked up): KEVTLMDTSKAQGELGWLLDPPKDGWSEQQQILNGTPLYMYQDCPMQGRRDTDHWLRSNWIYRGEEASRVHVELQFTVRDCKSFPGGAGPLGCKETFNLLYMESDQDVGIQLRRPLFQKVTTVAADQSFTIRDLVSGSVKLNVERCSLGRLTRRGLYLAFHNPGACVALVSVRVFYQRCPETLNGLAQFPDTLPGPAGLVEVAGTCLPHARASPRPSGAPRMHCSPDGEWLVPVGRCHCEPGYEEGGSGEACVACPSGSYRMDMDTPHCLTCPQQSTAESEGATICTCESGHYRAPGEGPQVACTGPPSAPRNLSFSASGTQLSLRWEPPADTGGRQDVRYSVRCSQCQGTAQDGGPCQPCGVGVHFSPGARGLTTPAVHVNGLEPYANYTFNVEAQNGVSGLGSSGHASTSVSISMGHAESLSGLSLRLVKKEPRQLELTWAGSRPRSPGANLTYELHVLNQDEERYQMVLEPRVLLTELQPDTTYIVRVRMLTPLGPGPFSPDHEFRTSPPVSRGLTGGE

T2: Human EphA6 Fc fusion (Human, UniProt Q9UF33 23-550, limits assumed)
T2 construct: Bought Fc fusion; also called R&D Systems 5606-A6; not shown: Fc of the bought fusion
T2 sequence (looked up): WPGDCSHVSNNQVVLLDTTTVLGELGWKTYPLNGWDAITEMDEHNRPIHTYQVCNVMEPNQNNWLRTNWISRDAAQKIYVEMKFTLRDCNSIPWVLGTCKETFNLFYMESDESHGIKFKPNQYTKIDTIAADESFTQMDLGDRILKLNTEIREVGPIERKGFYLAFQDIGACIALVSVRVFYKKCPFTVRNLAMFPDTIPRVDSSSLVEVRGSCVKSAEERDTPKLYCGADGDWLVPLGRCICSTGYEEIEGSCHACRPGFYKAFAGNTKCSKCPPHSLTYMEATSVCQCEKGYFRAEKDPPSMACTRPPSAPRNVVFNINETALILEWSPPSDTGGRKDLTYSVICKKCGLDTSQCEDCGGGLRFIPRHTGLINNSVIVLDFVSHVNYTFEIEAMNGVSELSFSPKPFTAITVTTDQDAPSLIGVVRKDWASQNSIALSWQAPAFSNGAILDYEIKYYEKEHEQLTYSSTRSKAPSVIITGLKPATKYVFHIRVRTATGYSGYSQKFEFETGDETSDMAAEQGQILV

T3: Human EphB4 Fc fusion (Human, UniProt P54760 16-539)
T3 construct: Bought Fc fusion; also called Sino Biologics 10235-H02H; not shown: Fc of the bought fusion
T3 sequence (looked up): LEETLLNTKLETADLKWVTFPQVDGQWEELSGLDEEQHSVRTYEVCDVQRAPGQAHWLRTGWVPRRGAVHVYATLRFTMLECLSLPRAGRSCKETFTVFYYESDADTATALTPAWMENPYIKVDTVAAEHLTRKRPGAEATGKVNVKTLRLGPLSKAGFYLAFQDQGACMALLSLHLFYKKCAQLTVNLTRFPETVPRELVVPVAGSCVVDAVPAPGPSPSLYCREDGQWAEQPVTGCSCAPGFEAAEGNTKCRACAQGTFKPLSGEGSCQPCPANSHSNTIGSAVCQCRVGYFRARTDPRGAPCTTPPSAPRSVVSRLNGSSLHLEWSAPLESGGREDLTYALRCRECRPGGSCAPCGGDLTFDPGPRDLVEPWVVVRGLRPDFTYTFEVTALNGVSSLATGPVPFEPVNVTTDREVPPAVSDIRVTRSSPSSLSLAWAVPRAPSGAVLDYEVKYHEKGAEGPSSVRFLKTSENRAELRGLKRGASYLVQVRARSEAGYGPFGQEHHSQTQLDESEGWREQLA

T4: Human EphA3 Fc fusion (Human, UniProt P29320 21-541, limits assumed)
T4 construct: Bought Fc fusion; also called R&D Systems 6444-A3; not shown: Fc of the bought fusion
T4 sequence (looked up): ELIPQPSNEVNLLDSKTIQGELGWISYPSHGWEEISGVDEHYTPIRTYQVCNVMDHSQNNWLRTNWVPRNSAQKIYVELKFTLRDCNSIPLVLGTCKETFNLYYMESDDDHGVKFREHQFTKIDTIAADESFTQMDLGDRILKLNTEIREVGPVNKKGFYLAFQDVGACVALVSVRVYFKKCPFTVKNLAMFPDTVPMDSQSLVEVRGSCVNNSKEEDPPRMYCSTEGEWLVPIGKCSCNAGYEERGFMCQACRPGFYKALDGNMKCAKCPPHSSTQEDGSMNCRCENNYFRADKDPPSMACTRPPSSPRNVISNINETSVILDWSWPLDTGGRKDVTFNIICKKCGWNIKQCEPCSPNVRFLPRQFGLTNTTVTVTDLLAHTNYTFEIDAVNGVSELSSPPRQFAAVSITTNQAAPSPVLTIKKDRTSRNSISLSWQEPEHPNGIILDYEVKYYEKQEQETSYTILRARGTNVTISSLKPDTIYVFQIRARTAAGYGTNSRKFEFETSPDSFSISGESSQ

T5: Human EphA7 Fc fusion (Human, UniProt Q15375 28-555, limits assumed)
T5 construct: Bought Fc fusion; also called R&D Systems 6756-A7; not shown: Fc of the bought fusion
T5 sequence (looked up): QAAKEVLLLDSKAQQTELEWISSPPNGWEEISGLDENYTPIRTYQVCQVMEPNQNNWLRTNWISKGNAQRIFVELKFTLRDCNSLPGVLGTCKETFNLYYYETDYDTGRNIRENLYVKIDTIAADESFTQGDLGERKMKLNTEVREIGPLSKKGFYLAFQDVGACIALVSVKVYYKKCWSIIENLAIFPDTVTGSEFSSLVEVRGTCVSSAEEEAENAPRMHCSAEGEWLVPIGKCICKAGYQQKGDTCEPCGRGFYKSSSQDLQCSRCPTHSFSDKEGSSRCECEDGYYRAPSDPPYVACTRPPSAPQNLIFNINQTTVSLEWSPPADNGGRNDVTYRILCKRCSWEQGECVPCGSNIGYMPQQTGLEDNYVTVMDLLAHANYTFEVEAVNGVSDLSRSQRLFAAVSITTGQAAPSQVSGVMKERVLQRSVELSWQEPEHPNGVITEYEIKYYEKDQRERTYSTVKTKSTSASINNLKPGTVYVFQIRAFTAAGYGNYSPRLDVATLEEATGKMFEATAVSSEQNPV

B1: BCY6082 (peptide)
peptide: AXDCPLVNPLCLHPGWTC
modifications: not fully specified; N-terminal (β-Ala)-Sar10 spacer precedes SEQ ID NO: 11; HArg (homoarginine) at residue 2 of SEQ ID NO: 11; three Cys cyclised on the TATA scaffold; DM1-SS(SO3H)- (DM1-SO3H-SPDB) on the N-terminal amine
B2: BCY6033 (peptide)
peptide: AXDCPLVNPLCLHPGWTC
modifications: not fully specified; N-terminal (β-Ala)-Sar10 spacer precedes SEQ ID NO: 11; HArg (homoarginine) at residue 2 of SEQ ID NO: 11; three Cys cyclised on the TATA scaffold; ValCit-MMAE (MMAE-PABC-Cit-Val-glutarate) on the N-terminal amine

Experiments:
Experiment in all cases: SPR, Fc-tagged protein captured by anti-human IgG
[1] = molecular target: T1, Human EphA1 Fc fusion
[2] = molecular target: T2, Human EphA6 Fc fusion
[3] = molecular target: T3, Human EphB4 Fc fusion
[4] = molecular target: T4, Human EphA3 Fc fusion
[5] = molecular target: T5, Human EphA7 Fc fusion

| Binder | binding result [1] | binding result [2] | binding result [3] | binding result [4] | binding result [5] |
| --- | --- | --- | --- | --- | --- |
| B1 | no binding (tested: 5 µM) | no binding (tested: 20 µM) | no binding (tested: 20 µM) | no binding (tested: 5 µM) | no binding (tested: 20 µM) |
| B2 | no binding (tested: 5 µM) | no binding (tested: 20 µM) | no binding (tested: 20 µM) | no binding (tested: 5 µM) | no binding (tested: 20 µM) |
